The target in the assay is C-terminally truncated SthK 1-420. The assay can be described thus: high-speed atomic force microscopy (HS-AFM); SthK reconstituted in lipid bilayers (E. coli polar lipid extract, lipid-to-protein ratio 0.8 to 1.0 w:w) as 2D-crystals, adsorbed on mica; imaging buffer 20 mM HEPES pH 8.0, 100 mM KCl, 100 uM cAMP; the oligomer is seen in topographs of single channels.

Take “C-terminally truncated SthK 1-420 (domain or fragment)”: the stoichiometry N (as a rule, a count of units in the complex or per binding partner) amounted to 4.

(Values after article PMC6162275.)
